# Assay results published in publication PMC6133773.
# Columns and labels:
# [1] = substrate: C[C@](O)(CO)[C@H](O)COP(=O)(O)O; assay: Michaelis-Menten kinetics; type: biochemical, Escherichia coli; settings: Mg2+; CTP active site; natural substrate
# purified protein [2] = substrate: C[C@](O)(CO)[C@H](O)C=C(F)P(=O)(O)O; assay: purified protein; settings: Mg2+; CTP active site (alternative substrate)
# purified protein [3] = substrate: C[C@](O)(CO)[C@H](O)C=CP(=O)(O)O; assay: purified protein; settings: Mg2+; CTP active site (alternative substrate)
# purified protein [4] = substrate: C[C@](O)(CO)[C@H](O)CC(F)(F)P(=O)(O)O; assay: purified protein; settings: Mg2+; CTP active site (alternative substrate)
# purified protein [5] = substrate: C[C@](O)(CO)[C@H](O)C[C@H](F)P(=O)(O)O; assay: purified protein; settings: Mg2+; CTP active site (alternative substrate)
# purified protein [6] = substrate: C[C@](O)(CO)[C@H](O)CCP(=O)(O)O; assay: purified protein; settings: Mg2+; CTP active site (alternative substrate)
protein,measurement,setting,value
IspD (Escherichia coli K-12) (protein) ATTHLDVCAVVPAAGFGRRMQTECPKQYLSIGNQTILEHSVHALLAHPRVKRVVIAISPGDSRFAQLPLANHPQITVVDGGDERADSVLAGLKAAGDAQWVLVHDAARPCLHQDDLARLLALSETSRTGGILAAPVRDTMKRAEPGKNAIAHTVDRNGLWHALTPQFFPRELLHDCLTRALNEGATITDEASALEYCGFHPQLVEGRADNIKVTRPEDLALAEFYLTRTIHQENT,Km,[1],0.10 ± 0.02 mM
same,kcat,[1],18.2 ± 1 s⁻¹
same,kcat/Km,[1],180000 M⁻¹ s⁻¹
same,Km,purified protein [2],0.7 ± 0.5 mM
same,Km,purified protein [3],4 ± 1 mM
same,kcat,purified protein [3],0.09 ± 0.01 s⁻¹
same,kcat/Km,purified protein [3],20 M⁻¹ s⁻¹
same,Km,purified protein [4],1.9 ± 0.7 mM
same,kcat,purified protein [4],0.2 ± 0.0333 s⁻¹
same,kcat/Km,purified protein [4],110 M⁻¹ s⁻¹
same,Km,purified protein [5],1.0 ± 0.1 mM
same,kcat,purified protein [5],0.217 ± 0.01 s⁻¹
same,kcat/Km,purified protein [5],220 M⁻¹ s⁻¹
same,Km,purified protein [6],1.3 ± 0.2 mM
